# Numbering of substitutions follows the chain as printed.
# B1: 7G7B6 (antibody, V domains shown)
# VH: EVQLVESGGDLVQPRGSLKLSCAASGFTFSSYGMSWVRQTPDKRLELVATINGYGDTTYYPDSVKGRFTISRDNAKNTLYLQMSSLKSEDTAMYFCARDRDYGNSYYYALDYWGQGTSVTVSS
# VL: QIVLSQSPAILSASPGERVTMTCRASSSVSFMHWLQQKPGSSPKPWIYATSNLASGVSARFSGSGSGTSYSLTITRVEAEDAATYYCQQWSSNPPAFGGGTKLEIK
# B2: D5 Fab (Fab, V domains shown)
# VH: HVQLQQSGAELVRPGTSVKISCKASGYTFTNYWLGWVKQRPGHGLEWIGDIYPGGGYTNYNEKFKGKATLTADTSSSTAYMQLSSLTSEDSAVYFCARVTPASWGQGTSLTVSS
# VL: DIVMTQSQKFMSTSVGDRVSVTCKASQNVGTNVAWYQQKPGQSPKALIYSASYRYSGVPDRFTGSGSGTDFTLTISNVQSEDLAEYFCQQYNSYPYTFGGGTKLEMK
# notes: Fab from mouse immune phage library, expressed in E. coli; also called Fab clone D5
# B3: D17 Fab (Fab, V domains shown)
# VH: B2 VH with H1Q, V2I, S109T, S114A
# VL: B2 VL with V3L, M4L, Y96L, M106I
# notes: Fab; also called Fab clone D17
# B4: D16 Fab (Fab, V domains shown)
# VH: B2 VH with H1Q, L4M, S109T
# VL: B2 VL with V3Q, Y96W, M106I
# notes: Fab; also called Fab clone D16
# B5: D34 Fab (Fab, V domains shown)
# VH: QVQLQQSGAELVRPGVSVKISCKGSGYTFTDYAMHWVKQSHAKSLEWIGVISTYSGDVSYNQKFKGKATMTVDKSSSTAYMELARLTSEDSAIYYCARGVTFDSWGQGTTVTVSS
# VL: DIQMTQSPASLSASVGETVTITCRASENSYSYLEWYQQKQGKSPQLLVYNAKTLAEGVPSRFSGSGSGTQFSLKINSLQPEDFGTYYCQHHYGTPYTFGGGTKLEIK
# notes: Fab; also called Fab clone D34
# B6: D11 Fab (Fab, V domains shown)
# VH: B5 VH with V2I, S7P, V18L, K38R, V58A, S59I, M81L, E89D, S104Y
# VL: DIQMTQTTSSLSASLGDRVTITCRASQDISNYLEWYQQKQGKSPQLLVYNAKTLAEGVPSRFSGSGSGTQFSLKINSLQPEDFGSYYCQHHYDTPYTFGGGTKLEIK
# notes: Fab; also called Fab clone D11
# B7: D36 Fab (Fab, V domains shown)
# VH: B5 VH with S7P, V18L, K38R, V58A, S59L, M81L, S104Y, V111L
# VL: B5 VL with I2V, Q3V, I106M
# notes: Fab; also called Fab clone D36
# B8: AH05214 (human IgG1 reformatted) (antibody, V domains shown)
# VH: QIQLQQPGAELVKPGASVKLPCKASGYTFTSYWMHWVKQRPGQGLEWIGEINPSNGRTNYNEKFKSKATLTVDKSSSTAYMQLSSLTSEDSAVYYCARQLAAYWGQGTTVTVSS
# VL: DILLTQSPALMAASPGEKVTITCSVSSSISSSNLHWYQQKSETSPKPWIYGTSNLASGVPVRFSGSGSGTSYSLTISSMEAEDAATYYCQQWSSYPLTFGGGTKLEIK
# B9: AH05286 (human IgG1 reformatted) (antibody, V domains shown)
# VH: QVQLKQSGADLMKPGASVKISCKASGYTFSNYWIEWIKQRPGHGLEWIGEILPGSGYTNYNENFKGKATFTADTSSNTTYIQLSSLSSEDSAVYYCARGGTSFVHFDYWGQGTTLTVSS
# VL: DIVLTQSPPTLSLSPGERVTLSCKASQDVNTAVAWYQQKPGQAPRLLIYWASTRHTGVPSRFSGSGSGTDFTLTISSLQPEDFATYYCQQHYSSPWTFGGGTKLEIK
# B10: AH05249 (human IgG1 reformatted) (antibody, V domains shown)
# VH: B9 VH with K5Q, I20M, K23R, Y57F, I81M, Q82L, F103V, Y108S
# VL: DIVMTQTPKFLLVSAGDRVTITCKASQSVNNDVVWYQQKPGQSPKLLIYYASNRYTGVPDRFTGSGYGTDFTFTISTVQAEDLAVYFCQQDYRSPYTFGGGTKLEIK
# B11: AH04734 (human IgG1 reformatted) (antibody, V domains shown)
# VH: QVQLQQPAAELARPGASVKMSCKASGYTFTTSTMHWVKQRPGQGLEWIGYINPRSGYTEYNQKFKDKTTLTADKSSSTAYMQLSSLTSEDSAVYYCARHYYFDYWGQGTTVTVSS
# VL: DIQMTQSTSSLSASLGDRVTISCRASQDIRNYLNWYQQKPDGTVKLLIYYTSRLHSGVPSRFSGSGSGTDYSLTISNLEQEDIATYFCQQGNTLPPTSGGGTKLEIK
# B12: D34 (human IgG1 reformatted) (antibody, V domains shown)
# VH: B5 VH
# VL: B5 VL
# B13: D11 (human IgG1 reformatted) (antibody, V domains shown)
# VH: B5 VH with V2I, S7P, V18L, K38R, V58A, S59I, M81L, E89D, S104Y
# VL: B6 VL
# Target: T1, CD25 on CD25+ cells (SUDHL-1, HEK IL-2 reporter cells, primary human regulatory T cells) (human, UniProt P01589 22-272)
# T1 sequence (looked up): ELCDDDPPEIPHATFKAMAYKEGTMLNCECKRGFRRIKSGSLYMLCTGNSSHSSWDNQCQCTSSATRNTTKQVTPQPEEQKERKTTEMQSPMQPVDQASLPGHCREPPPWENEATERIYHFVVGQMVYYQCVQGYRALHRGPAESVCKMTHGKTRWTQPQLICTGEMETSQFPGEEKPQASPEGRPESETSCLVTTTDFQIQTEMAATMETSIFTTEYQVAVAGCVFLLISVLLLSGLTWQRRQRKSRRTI
# Assay: cell-based or functional assay
Binder,pSTAT5 IC50 (1 ug/mL) [ng/ml],pSTAT5 IC50 (2 ug/mL) [ng/ml],pSTAT5 IC50 (5 ug/mL) [ng/ml]
B1,0.963,0.906,1.47
B2,0.303,0.488,1.65
B3,0.251,0.217,0.283
B4,0.43,4.77,40.3
B5,2.56,2.35,2.27
B6,0.414,0.303,0.509
B7,2.23,3.45,0.378

# Target: T2, full-length CD25 (human CD25, recombinant protein used on biosensors) (human, UniProt P01589 22-213, limits assumed)
# T2 construct: Printed only as Human CD25 / full-length CD25; also called CD25 antigen; alpha chain of the IL-2 receptor
# T2 sequence (looked up): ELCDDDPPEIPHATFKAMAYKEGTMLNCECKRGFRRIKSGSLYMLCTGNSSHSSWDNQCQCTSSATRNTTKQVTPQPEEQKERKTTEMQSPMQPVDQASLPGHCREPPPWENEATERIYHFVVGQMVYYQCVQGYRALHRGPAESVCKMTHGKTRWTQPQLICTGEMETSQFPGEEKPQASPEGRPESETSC
# Assay: Octet BLI, human CD25 on AR2G tip, Fab, pH 6.5
row,Binder,koff [s⁻¹]
1,B2,0.00412
2,B3,0.00536
3,B4,0.00591
4,B5,0.00296
5,B6,0.00522
6,B7,0.00172

# Target: T2, full-length CD25 (human CD25, …)
# Assay: Octet BLI, human CD25 on AR2G tip, Fab, pH 7.4
row,Binder,koff [s⁻¹]
1,B2,0.00345
2,B3,0.00337
3,B4,0.004
4,B5,0.00285
5,B6,0.00452
6,B7,0.000898

# Target: T1, CD25 on CD25+ cells (SUDHL-1, HEK IL-2 …)
# Assay: flow cytometry, dose response on CD25+ SUDHL-1 cells;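 note: antibody binding to cells read as median fluorescence intensity of an AF647 anti-human Fc secondary, DAPI+ dead cells excluded, 20 min on ice, 5-fold dilutions from 10 ug/mL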
row,Binder,EC50 [µg/mL]
1,B8,~51.1
2,B9,0.777
3,B10,0.897
4,B1,0.903
5,B11,1.91
6,B12,1.1
7,B13,2.12

# — patent US20250122301A1 (IBIO, published 2025)
